Laboratory results published in paper PMC4748334.

Target: Francisella tularensis polyphosphate kinase 2 (FtPPK2) (Francisella tularensis subspecies tularensis SCHU S4)
Assay: crystal structure

Substance: Francisella tularensis polyphosphate kinase 2 (FtPPK2) (enzyme)
- stoichiometry N: 4
